Measurements published in patent US20060171977A1, “Methods for the identification of fungicidally active compounds based on thymidylate kinase” (priority 2004, published 2006).

Key:
[1] = substrate: Cc1cn([C@H]2C[C@H](O)[C@@H](COP(=O)(O)O)O2)c(=O)[nH]c1=O; test: KM determination of thymidylate kinase substrates (coupled PK/LDH assay, Lineweaver-Burk plot); type: biochemical, Saccharomyces cerevisiae; conditions: other: substrate of thymidylate kinase from yeast; FIG. 5
Method: (§1) FIG. 4: Graphical illustration of the kinetics of conversion of thymidylate and ATP by various concentration of thymidylate kinase in the assay. In an assay volume of 50 μl, 500 μM thymidylate, 500 μM ATP, 300 μM NADH, 400 μM PEP (phosphoenol pyruvate), 0.1 U pyruvate kinase and 0.1 U lactate dehydrogenase were employed. The conversion occurred on the basis of a decrease in absorption at 340 nm due to the reaction of the released ADP with PEP and NADH to form lactate and NAD.
(§2) FIG. 5: Lineweaver-Burk plot for determination of the KM value of dTMP (A) and ATP (B). The measured values are illustrated according to Lineweaver and Burk, i.e. 1/Vo=1/Vmax+1/S×(KM/Vmax), where Vo is the original reaction speed, Vmax is the maximum attainable reaction speed and S is the substrate concentration. Vmax and KM can then be calculated as the intercepts on the vertical axis and horizontal axis, 1/V and 1/KM. The KM value for dTMP is 0.17 mM […], the KM value for ATP is 0.16 mM […].
(§3) A preferred method (see Example 3) makes use of the fact that an adenosine diphosphate molecule (ADP) is released during the thymidylate kinase reaction. The activity, or the increase or decrease in activity, of the polypeptide according to the invention can thus be determined via detection of the resulting ADP. […]

[2] = substrate: Nc1ncnc2c1ncn2[C@@H]1O[C@H](COP(=O)(O)OP(=O)(O)OP(=O)(O)O)[C@@H](O)[C@H]1O; test: as above; type: biochemical, Saccharomyces cerevisiae; conditions: other: substrate of thymidylate kinase from yeast; FIG. 5
Method: as §1, §2, §3

B1: thymidylate kinase from yeast (Saccharomyces cerevisiae S288C) (protein)
chain: MMGRGKLILIEGLDRTGKTTQCNILYKKLQPNCKLLKFPERSTRIGGLINEYLTDDSFQLSDQAIHLLFSANRWEIVDKIKKDLLEGKNIVMDRYVYSGVAYSAAKGTNGMDLDWCLQPDVGLLKPDLTLFLSTQDVDNNAEKSGFGDERYETVKFQEKVKQTFMKLLDKEIRKGDESITIVDVTNKGIQEVEALIWQIVEPVLSTHIDHDKFSFF
notes: His6 (with pDest17 vector linker) (N); made in house; host or cells: E. coli BL21(DE3)pLysS
**Q.** Which Km [1] does the source give for B1 here?
**A.** The Km was 170 µM.

**Q.** What about the Km [2] of the same protein?
**A.** The Km was 160 µM.
